In data set [1] the target is disulfide-linked NT5B dimer (human) (UniProt Q9HC84). The data set is described as follows: AUC; sedimentation velocity, 35,000 rpm, 20 °C; NT5B in 5 mM CaCl2 at pH 6; reversed by 10 mM EGTA and pH 7.4.
For data set [2] the target is unchanged. The data set is described as follows: AUC; sedimentation velocity, 35,000 rpm, 20 °C; NT5B in 5 mM CaCl2 at pH 5.
Data set [3] has the same target. Nature of the data set: SEC-MALLS; NT5B in 5 mM CaCl2 at pH 6, Superose 6 10/300, 25 mM Hepes, 150 mM NaCl; recovery in the dimer peak compared with 5 mM EGTA at pH 6.
The target in data set [4] is recombinant MUC5B N terminus D1-D2-D′-D3 (NT5B), from 293-EBNA cells (human) (UniProt Q9HC84). Nature of the data set: SDS-PAGE, reduced and nonreduced; purified recombinant proteins from 293-EBNA conditioned medium; shows disulfide-linked dimers.
Data set [5] shares this target. Nature of the data set: SEC-MALLS; Superose 6 10/300, 25 mM Hepes, 150 mM NaCl, with 5 mM CaCl2 or 5 mM EGTA at pH 7.4 or pH 6, room temperature, after overnight incubation at 4 °C.
The target is the same in data set [6]. The data set is described as follows: AUC; sedimentation velocity, 35,000 rpm, 20 °C; NT5B in 5 mM EGTA at pH 7.4 or pH 6, or 5 mM CaCl2 at pH 7.4.
For data set [7], the target named is recombinant MUC5B N terminus D1-D2-D′-D3 (NT5B), from A549 cells (human) (UniProt Q9HC84). Nature of the data set: SDS-PAGE (reduced and nonreduced) and Western blot with anti-His antibody; conditioned medium of transiently transfected A549 cells. (In general: A western blot detects proteins with antibodies after separation by electrophoresis.)
Data set [8] deals with the molecule itself. The data set is described as follows: SDS-PAGE, reduced and nonreduced; purified recombinant proteins from 293-EBNA conditioned medium; shows disulfide-linked dimers.

With “disulfide-linked NT5B dimer (from UniProt Q9HC84 26-1304) (complex)”, in data set [1], the multimeric fraction (peak III), percent of total was 29 % of total. Moreover, the higher order multimeric species, percent of total in data set [2] was 44 % of total. This molecule came in with a reduction of protein recovered in the dimer peak (5 mM CaCl2 pH 6 against 5 mM EGTA pH 6) in data set [3] of 15%.
By stoichiometry N is commonly meant a count of units in the complex or per binding partner. On to “recombinant MUC5B N terminus D1-D2-D′-D3 (NT5B), from 293-EBNA cells (from UniProt Q9HC84 26-1304) (domain or fragment)”, for which the stoichiometry N in data set [4], in data set [5] and in data set [6] was 2 each time.
Consider “recombinant MUC5B N terminus D1-D2-D′-D3 (NT5B), from A549 cells (from UniProt Q9HC84 26-1304) (domain or fragment)”, for which, in data set [7], the stoichiometry N came to 2.

B1: recombinant MUC5B D3 domain (domain or fragment, human, UniProt Q9HC84 894-1304, looked up)
chain: TCVAYGDGHFITFDGDRYSFEGSCEYILAQDYCGDNTTHGTFRIVTENIPCGTTGTTCSKAIKLFVESYELILQEGTFKAVARGPGGDPPYKIRYMGIFLVIETHGMAVSWDRKTSVFIRLHQDYKGRVCGLCGNFDDNAINDFATRSRSVVGDALEFGNSWKLSPSCPDALAPKDPCTANPFRKSWAQKQCSILHGPTFAACRSQVDSTKYYEACVNDACACDSGGDCECFCTAVAAYAQACHDAGLCVSWRTPDTCPLFCDFYNPHGGCEWHYQPCGAPCLKTCRNPSGHCLVDLPGLEGCYPKCPPSQPFFNEDQMKCVAQCGCYDKDGNYYDVGARVPTAENCQSCNCTPSGIQCAHSLEACTCTYEDRTYSYQDVIYNTTDGLGACLIAICGSNGTIIRKAVACPG
notes: MUC5B, human, D3 domain, residues 894-1304; also called D3 protein
Consider B1, for which the “stoichiometry N” value in data set [8] is 2.

B2: recombinant MUC5B D2-D′-D3 domains (domain or fragment, human, UniProt Q9HC84 425-1304, looked up)
chain: CSVQGGAHISTYDEKLYDLHGDCSYVLSKKCADSSFTVLAELRKCGLTDNENCLKAVTLSLDGGDTAIRVQADGGVFLNSIYTQLPLSAANITLFTPSSFFIVVQTGLGLQLLVQLVPLMQVFVRLDPAHQGQMCGLCGNFNQNQADDFTALSGVVEATGAAFANTWKAQAACANARNSFEDPCSLSVENENYARHWCSRLTDPNSAFSRCHSIINPKPFHSNCMFDTCNCERSEDCLCAALSSYVHACAAKGVQLSDWRDGVCTKYMQNCPKSQRYAYVVDACQPTCRGLSEADVTCSVSFVPVDGCTCPAGTFLNDAGACVPAQECPCYAHGTVLAPGEVVHDEGAVCSCTGGKLSCLGASLQKSTGCAAPMVYLDCSNSSAGTPGAECLRSCHTLDVGCFSTHCVSGCVCPPGLVSDGSGGCIAEEDCPCVHNEATYKPGETIRVDCNTCTCRNRRWECSHRLCLGTCVAYGDGHFITFDGDRYSFEGSCEYILAQDYCGDNTTHGTFRIVTENIPCGTTGTTCSKAIKLFVESYELILQEGTFKAVARGPGGDPPYKIRYMGIFLVIETHGMAVSWDRKTSVFIRLHQDYKGRVCGLCGNFDDNAINDFATRSRSVVGDALEFGNSWKLSPSCPDALAPKDPCTANPFRKSWAQKQCSILHGPTFAACRSQVDSTKYYEACVNDACACDSGGDCECFCTAVAAYAQACHDAGLCVSWRTPDTCPLFCDFYNPHGGCEWHYQPCGAPCLKTCRNPSGHCLVDLPGLEGCYPKCPPSQPFFNEDQMKCVAQCGCYDKDGNYYDVGARVPTAENCQSCNCTPSGIQCAHSLEACTCTYEDRTYSYQDVIYNTTDGLGACLIAICGSNGTIIRKAVACPG
notes: MUC5B, human, D2-D′-D3 domains, residues 425-1304
For B2, in data set [8], the “stoichiometry N” value worked out at 2.

(Values after paper PMC4047408, “Assembly of the Respiratory Mucin MUC5B” (The Journal of Biological Chemistry, 2014).)
